Measured values published in publication PMC6531494, “Exploring the sequence variability of polymerization-involved residues in the production of levan- and inulin-type fructooligosaccharides with a levansucrase” (Scientific Reports, 2019).
Where a chain is given by its changes, count along the chain named. Names and notes keep the numbering of the source.

B1: B. megaterium levansucrase (Priestia megaterium DSM 319; K373H) (protein)
chain: KGNDSKDFNNSYGISHITRDNMVKIPQQQNSDQFKVPAFDESTIKNIASAKGKNASGNTIDLDVWDSWPLQNADGTVATYHGYQIVFALAGDPKDSNDTSVYLFYKKAGDKSIDSWKNAGRVFKDSDKFVPNDPHLKNQTQEWSGSGTLTKDGKVRLFYTDYSGKQYGKQTLTTAQVNMSQPNDNTLKVDGVEDYKSIFDGDGKIYQTVQQFIDEGGYDTGDNHTLRDPHYIEDNGHKYLVFEANTGTEDGYQGEDSLYNRAYYGGNNPFFQSEKKKLLEGSNKEKASLANGALGIIELNDDYTLKKVMKPLITSNTVTDEIERANIFKKDGKWYLFTDSRGSHMTIDGIGQDDVYMLGYVSNTLTGKYKPLNDTGLVLHMDLDPNDKTFTYSHFAVPQTKGDNVVITSYMTNRGFYEDNHSTFAPSFLVNIDGSKTSVVKDRVLEQGQLTVDED
notes: recombinant, E. coli BL21(DE3), pRSF-derived vector, purified from cleared lysate on CM sepharose
B2: B. megaterium levansucrase (Priestia megaterium DSM 319; K373L) (protein)
chain: B1 chain with H344L
notes: as for B1

Substrate: OC[C@H]1O[C@@](CO)(O[C@H]2O[C@H](CO)[C@@H](O)[C@H](O)[C@H]2O)[C@@H](O)[C@@H]1O
Assay: initial rates, DNS reducing sugar assay, Michaelis-Menten fit
Assay type: biochemical, Priestia megaterium
Source text: initial rates, DNS reducing sugar assay, Michaelis-Menten fit on B. megaterium levansucrase

[1] = 50 mM Sörensen buffer pH 6.5, variant 1B1, global activity (hydrolysis and transfer)
[2] = 50 mM Sörensen buffer pH 6.5, variant 3C5, global activity (hydrolysis and transfer)

Protein | Km [1] [mM] | kcat [1] [s⁻¹] | kcat/Km [1] [M⁻¹ s⁻¹] | Km [2] [mM] | kcat [2] [s⁻¹] | kcat/Km [2] [M⁻¹ s⁻¹]
B1 | 41.8 ± 6.6 | 198 ± 8.4 | 4720 | – | – | –
B2 | – | – | – | 12.5 ± 1.3 | 122 ± 2.3 | 9800
